Where a chain is given by its changes, count along the chain named.

Experiment [1] addresses T1, recombinant mouse TNFR2 (mTNFR2) (Sino Biological, 50128-M08H) (mouse, UniProt P25119 23-258).
T1 sequence (looked up): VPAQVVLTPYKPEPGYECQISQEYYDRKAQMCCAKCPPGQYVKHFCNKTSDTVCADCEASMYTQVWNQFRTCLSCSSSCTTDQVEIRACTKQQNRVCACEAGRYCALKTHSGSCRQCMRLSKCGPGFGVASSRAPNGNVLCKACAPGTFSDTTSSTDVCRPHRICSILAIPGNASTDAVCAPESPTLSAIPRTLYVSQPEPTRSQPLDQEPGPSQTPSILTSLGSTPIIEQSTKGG
Description: ELISA, coated mouse TNFR2. On the procedure: (§1) After TMB development, the detection was performed using microplate reader: dual wavelength 450 nm/655 nm detection, and results were calculated by OD₄₅₀-OD₆₅₅.
(§2) Using the same method as above, the TNFR2 antigens of cynomolgus monkey and mouse (Sino Biological, 90102-C021 and 50128-M08H) were coated separately. The anti-human TNFR2 mouse monoclonal antibodies to be tested were gradient diluted, then added with the anti-mouse Fab segment secondary antibody (Jackson Immuno Research, 515-035-072), and TMB development was performed. ELISA was used to detect the binding of 8 strains of mouse monoclonal antibodies to recombinant mouse TNFR2 (mTNFR2) and cynomolgus monkey TNFR2 (Cyno. TNFR2).

In experiment [2] the target is T2, recombinant cynomolgus monkey TNFR2 (Cyno. TNFR2) (Sino Biological, 90102-C021) (cynomolgus monkey, UniProt A0A2K5VET2 132-366).
T2 sequence: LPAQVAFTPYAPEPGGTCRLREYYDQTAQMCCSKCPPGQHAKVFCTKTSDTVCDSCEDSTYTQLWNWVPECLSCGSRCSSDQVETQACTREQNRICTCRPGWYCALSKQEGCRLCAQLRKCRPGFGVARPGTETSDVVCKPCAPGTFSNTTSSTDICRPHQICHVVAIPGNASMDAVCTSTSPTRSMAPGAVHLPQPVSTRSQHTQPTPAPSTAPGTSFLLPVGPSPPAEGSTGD
Nature of the experiment: ELISA, coated cynomolgus TNFR2. The method, then:
as §1, §2

The target of experiment [3] is T3, human TNFR2 on the cell membrane (human, UniProt P20333 23-461).
T3 construct: whole, on cells; One molecule for all cell formats; also called TNFR2-CHO cells; CHO-TNFR2
T3 sequence (looked up): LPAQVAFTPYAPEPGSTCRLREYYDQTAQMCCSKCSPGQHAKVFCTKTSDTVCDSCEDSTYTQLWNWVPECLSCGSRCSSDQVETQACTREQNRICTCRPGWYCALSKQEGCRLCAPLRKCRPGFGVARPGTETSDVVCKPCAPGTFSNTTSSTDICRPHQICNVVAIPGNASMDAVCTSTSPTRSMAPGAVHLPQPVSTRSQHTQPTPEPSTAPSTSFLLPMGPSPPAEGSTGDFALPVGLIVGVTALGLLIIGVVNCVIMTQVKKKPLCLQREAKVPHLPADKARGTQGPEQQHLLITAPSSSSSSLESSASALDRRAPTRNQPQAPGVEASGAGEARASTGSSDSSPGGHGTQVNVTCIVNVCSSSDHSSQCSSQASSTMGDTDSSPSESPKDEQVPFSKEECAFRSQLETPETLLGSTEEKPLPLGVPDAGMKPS
Description: flow cytometry, TNFR2-CHO cells. On the procedure:
(§3) Purified anti-human TNFR2 mouse monoclonal antibodies were co-incubated with TNFR2 overexpressing CHO cell lines (obtained routinely as follows: PCDNA3.4-TNFR2 was transfected into CHO cells, and stable high expression TNFR2 cell lines were obtained through drug screening and monoclonal sorting), and then stained. The antibody binding intensity was analyzed by flow cytometry. The specific steps are as follows: TNFR2-CHO cells were counted, centrifuged, resuspended, then added to a 96-deep well plate, and the supernatant was discarded. The anti-TNFR2 antibodies to be tested were gradient diluted, added to the 96-deep well plate. […] The samples were detected using Beckman CytoFLEX.
On the technique in general: Flow cytometry measures light scatter and fluorescence of single cells or particles in a stream.

In experiment [4] the target is T4, recombinant human TNFR2 antigen (Kangdai, batch number A100114U) (human, UniProt P20333 23-257).
T4 construct: also called hTNFR2; TNFR2-FC (Shanghai Saijin Biopharmaceutical Co., Ltd., Qiangke, catalog number A100114U); not shown: Fc part of the bought TNFR2-FC
T4 sequence (looked up): T2 sequence with G16S, P36S, Q117P, H164N, A210E, G216S, V223M
Nature of the experiment: ELISA, coated recombinant human TNFR2. The method, then:
as §1

The target of experiment [5] is T3, human TNFR2 on the cell membrane. Description: flow cytometry on TNFR2-CHO cells. The method, then: as §3
Experiment [6] deals with T4, recombinant human TNFR2 antigen …. Description: ELISA, plate coated with recombinant human TNFR2 antigen. On the procedure:
as §1
For orientation: ELISA stands for enzyme-linked immunosorbent assay.

Experiment [7] has as its target T2, recombinant cynomolgus monkey TNFR2 …. Nature of the experiment: ELISA, plate coated with recombinant cynomolgus monkey TNFR2. On the procedure: as §1, §2
In experiment [8] the target is T3, human TNFR2 on the cell membrane. Nature of the experiment: flow cytometry on human PBMC, CD3+ T cells. The method, then:
Purified anti-human TNFR2 human-mouse chimeric monoclonal antibodies were co-cultured with PBMC cells (Oricells) and stained. The binding of the antibody was analyzed by flow cytometry. The specific steps are as follows: PBMC cells (Oricells) were counted, centrifuged, resuspended, then added to a 96-deep well plate, and the supernatant was discarded. Diluted anti-TNFR2 monoclonal antibodies were added.

B1: anti-human TNFR2 mouse monoclonal antibody 12E12 (antibody, V domains shown)
VH: EVQLQQSGAELVKPGASVKLSCTVSGFNIKDFYIHWVKQRPEQGLEWIGRVDPEDGNTEYAPNFQDRATMTTDTSSNTAYLQLSSLTSVDTAVYYCSTWDGFSYFDYWGLGTTLTVSS
VL: QAVVTQESALTTSPGETVTLTCRSSTGPVTTNNYANWVQEKPDHLFTGLIGGTNDRAPGVPARFSGSLIGDKTALTITGTQTEDEAVYFCALWYRNHWVFGGGTKLTVL
In general, EC50 refers to the concentration giving half of the maximal effect. On to B1, for which the binding result in experiment [1] was “no binding”. The EC50 worked out at 0.139 µg/mL in experiment [2]; 0.147 µg/mL in experiment [3]; 0.0707 µg/mL in experiment [4]; 0.986 nM in experiment [5]; 0.474 nM in experiment [6]; 0.933 nM in experiment [7].

B2: anti-human TNFR2 mouse monoclonal antibody 7F2 (antibody, V domains shown)
VH: QVTLKESGPGILQPSQTLSLTCSFSGFSLNTFGLGVGWIRQPSGKGLEWLTHIWWNDDKYYNPALKSRLTISRDTSENLVFLKIANVDTADTATYYCARIEGLRRFDYWGQGTTLTVSS
VL: DIQMTQSPSSLSASLGGKVTITCKTSQDINKFIAWYQHKPGKGPRLLIHYTSTLQPGIPSRFSGSGSGRDYSFSISDLEPEDIATYYCLQYANLWAFGGGTKLEIK
Regarding B2, the binding result in experiment [1] is recorded as “no binding”. Also, the half-maximal effective concentration (EC50) in experiment [2] turned out to be 0.119 µg/mL; in experiment [3], 0.364 µg/mL; in experiment [4], 0.0623 µg/mL; in experiment [5], 2.44 nM; in experiment [6] it was 0.418 nM; in experiment [7], 0.795 nM.

B3: human-mouse chimeric TNFR2 monoclonal antibody 16D2-hFc (antibody, V domains shown)
VH: EVQLQQSEPELVKPGASVKIPCKASGYTFTDYNMDWVKQSHGKSLEWIGDINPNNGVTIYNQKFKGKATLTVDKSSSTAYMELRSLTSEDTAVYYCVILEYFDYWGQGTTLTVSS
VL: DIVMTQSTSSMSVSLGDTVSITCHASQGISSNIGWLQQKPGKSFKGLIYHGTKLEDGVPSRFSGSGSGADYSLTISSLESEDFADYYCVQYAQFPRTFGGGTKLEIK
notes: Mouse V regions of clone 16D2 with human constant regions
Turning to B3, in experiment [8], the “percent of cells in the upper right quadrant (Q1-UR, CD3+ and anti-human IgG Fc+)” value stood at 9.66%.

B4: anti-human TNFR2 mouse monoclonal antibody 29A1 (antibody, V domains shown)
VH: QVQLQQSGAEVVRPGASVTLSCKASGYTFSDYEMHWVKQTPVHGLEWIGAIDPETGDTAYNQKFKDKARVTADKSSSTAYMELRSLTSEDSAVYYCTRDIHYYGSSLSYFDYWGQGTTLTVSS
VL: DIVMTQSQKFMSTSVGDRVSVTCKASQNVGTNVAWYQQKPGQSPKVMIYSASYRYSGAPDRFTGSGSGTDFTLTVNNVQSEDLAEYFCQQYKTYPYTFGGGTKLEIE
Take B4: the binding result in experiment [1] was “no binding”. Also, the concentration giving a half-maximal response (EC50) turned out to be 0.0562 µg/mL in experiment [2]; 0.178 µg/mL in experiment [3]; 0.0255 µg/mL in experiment [4]; 1.19 nM in experiment [5]; 0.171 nM in experiment [6]; 0.377 nM in experiment [7].

B5: anti-human TNFR2 mouse monoclonal antibody 27F6 (antibody, V domains shown)
VH: EVQLQQSGTVLARPGASVKMSCKTSGYTFTSYWMHWVKQRPGQGLEWIGTIYPGNSDTSYNQKFKGKAKLTAVTSASTAYMELNSLTNEDSAVFYCTRENLLLRSYFFDYWGQGTTLTVSS
VL: DIVMTQSPASLAVSLGQRATISCKASQSVDYDGDSYLNWYQQKPGQPPKLLIYAASNLPSGIPARFSGSGSGTDFTLNIHPVEEEDAATYYCQQSNEDPRTFGGGTKLEIK
Take B5: the binding result in experiment [1] is given as “no binding”. In addition, the concentration for a half-maximal effect (EC50) in experiment [2] is 0.0756 µg/mL; in experiment [3] it was 0.187 µg/mL; in experiment [4], 0.0366 µg/mL; in experiment [5], 1.25 nM; in experiment [6] it was 0.245 nM; in experiment [7], 0.506 nM.

Source of the values: patent publication US20240392024A1 (SHANGHAI CELGEN BIO PHARMACEUTICAL, published 2024).
